# Literature values in patent US9394339B2, “Stabilized formulations of peptides and proteins protecting against non-enzymatic degradation” (Lyotropic Therapeutics, Inc., priority 2007, dated 2016).
# Conditions: aqueous solution, pH 7.4, 37° C., Tris-HCl buffer
row,Molecule,T1/10 (time to 10% degradation by deamidation) [days]
1,"Thymidylate synthase (1HW3): human protein (protein, UniProt P04818 2-313, looked up) Thymidylate synthase: PVAGSELPRRPLPPAAQERDAEPRPPHGELQYLGQIQHILRCGVRKDDRTGTGTLSVFGMQARYSLRDEFPLLTTKRVFWKGVLEELLWFIKGSTNAKELSSKGVKIWDANGSRDFLDSLGFSTREEGDLGPVYGFQWRHFGAEYRDMESDYSGQGVDQLQRVIDTIKTNPDDRRIIMCAWNPRDLPLMALPPCHALCQFYVVNSELSCQLYQRSGDMGLGVPFNIASYALLTYMIAHITGLKPGDFIHTLGDAHIYLNHIEPLKIQLQREPRPFPKLRILRKVEKIDDFKAEDFQIEGYNPHPTIKMEMAV",0.41
2,"Phosphatidylethanolamine binding protein (1BD9): human protein (protein, UniProt P30086 2-187, looked up) Phosphatidylethanolamine-bindi …: PVDLSKWSGPLSLQEVDEQPQHPLHVTYAGAAVDELGKVLTPTQVKNRPTSISWDGLDSGKLYTLVLTDPDAPSRKDPKYREWHHFLVVNMKGNDISSGTVLSDYVGSGPPKGTGLHRYVWLVYEQDRPLKCDEPILSNRSGDHRGKFKVASFRKKYELRAPVAGTCYQAEWDDYVPKLYEQLSGK",100
3,"Electron transfer flavoprotein (1EFV): human protein (protein, UniProt P13804 20-333; P38117 2-255, looked up) Electron transfer … 1: QSTLVIAEHANDSLAPITLNTITAATRLGGEVSCLVAGTKCDKVAQDLCKVAGIAKVLVAQHDVYKGLLPEELTPLILATQKQFNYTHICAGASAFGKNLLPRVAAKLEVAPISDIIAIKSPDTFVRTIYAGNALCTVKCDEKVKVFSVRGTSFDAAATSGGSASSEKASSTSPVEISEWLDQKLTKSDRPELTGAKVVVSGGRGLKSGENFKLLYDLADQLHAAVGASRAAVDAGFVPNDMQVGQTGKIVAPELYIAVGISGAIQHLAGMKDSKTIVAINKDPEAPIFQVADYGIVADLFKVVPEMTEILKKK Electron transfer … 2: AELRVLVAVKRVIDYAVKIRVKPDRTGVVTDGVKHSMNPFCEIAVEEAVRLKEKKLVKEVIAVSCGPAQCQETIRTALAMGADRGIHVEVPPAEAERLGPLQVARVLAKLAEKEKVDLVLLGKQAIDDDCNQTGQMTAGFLDWPQGTFASQVTLEGDKLKVEREIDGGLETLRLKLPAVVTADLRLNEPRYATLPNIMKAKKKKIEVIKPGDLGVDLTSKLSVISVEDPPQRTAGVKVETTEDLVAKLKEIGRI",29
4,"Phenylalanine hydroxylase (1DMW): human protein (protein, UniProt P00439 1-452, looked up) Phenylalanine-4-hydroxylase: MSTAVLENPGLGRKLSDFGQETSYIEDNCNQNGAISLIFSLKEEVGALAKVLRLFEENDVNLTHIESRPSRLKKDEYEFFTHLDKRSLPALTNIIKILRHDIGATVHELSRDKKKDTVPWFPRTIQELDRFANQILSYGAELDADHPGFKDPVYRARRKQFADIAYNYRHGQPIPRVEYMEEEKKTWGTVFKTLKSLYKTHACYEYNHIFPLLEKYCGFHEDNIPQLEDVSQFLQTCTGFRLRPVAGLLSSRDFLGGLAFRVFHCTQYIRHGSKPMYTPEPDICHELLGHVPLFSDRSFAQFSQEIGLASLGAPDEYIEKLATIYWFTVEFGLCKQGDSIKAYGAGLLSSFGELQYCLSEKPKLLPLELEKTAIQNYTVTEFQPLYYVAESFNDAKEKVRNFAATIPRPFSVRYDPYTQRIEVLDNTQQLKILADSINSEIGILCSALQKIK",33
5,"Quinone reductase type 2 (1QR2): human protein (protein, UniProt P16083 1-231, looked up) Ribosyldihydronicotinamide …: MAGKKVLIVYAHQEPKSFNGSLKNVAVDELSRQGCTVTVSDLYAMNLEPRATDKDITGTLSNPEVFNYGVETHEAYKQRSLASDITDEQKKVREADLVIFQFPLYWFSVPAILKGWMDRVLCQGFAFDIPGFYDSGLLQGKLALLSVTTGGTAEMYTKTGVNGDSRYFLWPLQHGTLHFCGFKVLAPQISFAPEIASEEERKGMVAAWSQRLQTIWKEEPIPCTAHWHFGQ",50
6,"Lithostathine (1LIT): human protein (protein, UniProt P05451 23-166, looked up) Lithostathine-1-alpha: QEAQTELPQARISCPEGTNAYRSYCYYFNEDRETWVDADLYCQNMNSGNLVSVLTQAEGAFVASLIKESGTDDFNVWIGLHDPKKNRRWHWSSGSLVSYKSWGIGAPSSVNPGYCVSLTSSTGFQKWKDVPCEDKFSFVCKFKN",74
7,"Ribonuclease inhibitor (1A4Y): human protein (protein, UniProt P13489 2-461, looked up) Ribonuclease inhibitor: SLDIQSLDIQCEELSDARWAELLPLLQQCQVVRLDDCGLTEARCKDISSALRVNPALAELNLRSNELGDVGVHCVLQGLQTPSCKIQKLSLQNCCLTGAGCGVLSSTLRTLPTLQELHLSDNLLGDAGLQLLCEGLLDPQCRLEKLQLEYCSLSAASCEPLASVLRAKPDFKELTVSNNDINEAGVRVLCQGLKDSPCQLEALKLESCGVTSDNCRDLCGIVASKASLRELALGSNKLGDVGMAELCPGLLHPSSRLRTLWIWECGITAKGCGDLCRVLRAKESLKELSLAGNELGDEGARLLCETLLEPGCQLESLWVKSCSFTAACCSHFSSVLAQNRFLLELQISNNRLEDAGVRELCQGLGQPGSVLRVLWLADCDVSDSSCSSLAATLLANHSLRELDLSNNCLGDAGILQLVESVRQPGCLLEQLVLYDIYWSEEMEDRLQALEKDKPSLRVIS",68
8,"Thioltransferase (1JHB): human protein (protein, UniProt P35754 2-106, looked up) Glutaredoxin-1: AQEFVNCKIQPGKVVVFIKPTCPYCRRAQEILSQLPIKQGLLEFVDITATNHTNEIQDYLQQLTGARTVPRVFIGKDCIGGCSDLVSLQQSGELLTRLKQIGALQ",71
9,"Procarboxypeptidase A2 (1AYE): human protein (protein, UniProt P48052 19-419, looked up, pro-form) pro-form: LETFVGDQVLEIVPSNEEQIKNLLQLEAQEHLQLDFWKSPTTPGETAHVRVPFVNVQAVKVFLESQGIAYSIMIEDVQVLLDKENEEMLFNRRRERSGNFNFGAYHTLEEISQEMDNLVAEHPGLVSKVNIGSSFENRPMNVLKFSTGGDKPAIWLDAGIHAREWVTQATALWTANKIVSDYGKDPSITSILDALDIFLLPVTNPDGYVFSQTKNRMWRKTRSKVSGSLCVGVDPNRNWDAGFGGPGASSNPCSDSYHGPSANSEVEVKSIVDFIKSHGKVKAFITLHSYSQLLMFPYGYKCTKLDDFDELSEVAQKAAQSLRSLHGTKYKVGPICSVIYQASGGSIDWSYDYGIKYSFAFELRDTGRYGFLLPARQILPTAEETWLGLKAIMEHVRDHPY",23
10,"Eosinophil cationic protein (1QMT): human protein (protein, UniProt P12724 28-160, looked up) Eosinophil cationic protein: RPPQFTRAQWFAIQHISLNPPRCTIAMRAINNYRWRCKNQNTFLRTTFANVVNVCGNQSIRCPHNRTLNNCHRSRFRVPLLHCDLINPGAQNISNCTYADRPGRRFYVVACDNRDPRDSPRYPVVPVHLDTTI",65
11,"Uroporphyrinogen decarboxylase (1URO): human protein (protein, UniProt P06132 1-367, looked up) Uroporphyrinogen decarboxylase: MEANGLGPQGFPELKNDTFLRAAWGEETDYTPVWCMRQAGRYLPEFRETRAAQDFFSTCRSPEACCELTLQPLRRFPLDAAIIFSDILVVPQALGMEVTMVPGKGPSFPEPLREEQDLERLRDPEVVASELGYVFQAITLTRQRLAGRVPLIGFAGAPWTLMTYMVEGGGSSTMAQAKRWLYQRPQASHQLLRILTDALVPYLVGQVVAGAQALQLFESHAGHLGPQLFNKFALPYIRDVAKQVKARLREAGLAPVPMIIFAKDGHFALEELAQAGYEVVGLDWTVAPKKARECVGKTVTLQGNLDPCALYASEEEIGQLVKQMLDDFGPHRYIANLGHGLYPDMDPEHVGAFVDAVHKHSRLLRQN",0.15
12,"O6-alkylguanine-DNA alkyltransferase (1EH6): human protein (protein, UniProt P16455 1-207, looked up) Methylated-DNA--protein-cystei …: MDKDCEMKRTTLDSPLGKLELSGCEQGLHEIKLLGKGTSAADAVEVPAPAAVLGGPEPLMQCTAWLNAYFHQPEAIEEFPVPALHHPVFQQESFTRQVLWKLLKVVKFGEVISYQQLAALAGNPKAARAVGGAMRGNPVPILIPCHRVVCSSGAVGNYSGGLAVKEWLLAHEGHRLGKPGLGGSSGLAGAWLKGAGATSGSPPAGRN",46
13,"Ribonuclease 4 (1RNF): human protein (protein, UniProt P34096 29-147, looked up) Ribonuclease 4: QDGMYQRFLRQHVHPEETGGSDRYCNLMMQRRKMTLYHCKRFNTFIHEDIWNIRSICSTTNIQCKNGKMNCHEGVVKVTDCRDTGSSRAPNCRYRAIASTRRVVIACEGNPQVPVHFDG",20
14,"-Lactalbumin (1B9O): human protein (protein, UniProt P00709 20-142, looked up) Alpha-lactalbumin: KQFTKCELSQLLKDIDGYGGIALPELICTMFHTSGYDTQAIVENNESTEYGLFQISNKLWCKSSQVPQSRNICDISCDKFLDDDITDDIMCAKKILDIKGIDYWLAHKALCTEKLEQWLCEKL",20
15,"Neutrophil (gelatinase) (1DFV): human protein (protein, UniProt P80188 21-198, looked up) Neutrophil …: QDSTSDLIPAPPLSKVPLQQNFQDNQFQGKWYVVGLAGNAILREDKDPQKMYATIYELKEDKSYNVTSVLFRKKKCDYWIRTFVPGCQPGEFTLGNIKSYPGLTSYLVRVVSTNYNQHAMVFFKKVSQNREYFKITLYGRTKELTSELKENFIRFSKSLGLPENHIVFPVPIDQCIDG",44

# Same assay, conditions: buffer, pH 7.4
row,Molecule,"T1/2 (half-life, deamidation) [days]"
1,"Glucosamine-6-phosphate deaminase isomerase (1D9T): human protein (protein, UniProt P46926 1-289, looked up) Glucosamine-6-phosphate …: MKLIILEHYSQASEWAAKYIRNRIIQFNPGPEKYFTLGLPTGSTPLGCYKKLIEYYKNGDLSFKYVKTFNMDEYVGLPRDHPESYHSFMWNNFFKHIDIHPENTHILDGNAVDLQAECDAFEEKIKAAGGIELFVGGIGPDGHIAFNEPGSSLVSRTRVKTLAMDTILANARFFDGELTKVPTMALTVGVGTVMDAREVMILITGAHKAFALYKAIEEGVNHMWTVSAFQQHPRTVFVCDEDATLELKVKTVKYFKGLMLVHNKLVDPLYSIKEKETEKSQSSKKPYSD",320

# Same assay, conditions: pH 7.4
row,Molecule,T1/10 (time to 10% degradation by deamidation) [days]
1,"Glucosamine-6-phosphate deaminase isomerase (1D9T): human protein (protein, UniProt P46926 1-289, looked up) Glucosamine-6-phosphate …: MKLIILEHYSQASEWAAKYIRNRIIQFNPGPEKYFTLGLPTGSTPLGCYKKLIEYYKNGDLSFKYVKTFNMDEYVGLPRDHPESYHSFMWNNFFKHIDIHPENTHILDGNAVDLQAECDAFEEKIKAAGGIELFVGGIGPDGHIAFNEPGSSLVSRTRVKTLAMDTILANARFFDGELTKVPTMALTVGVGTVMDAREVMILITGAHKAFALYKAIEEGVNHMWTVSAFQQHPRTVFVCDEDATLELKVKTVKYFKGLMLVHNKLVDPLYSIKEKETEKSQSSKKPYSD",49

# Same assay, conditions: pH 7.4, 37° C., […] Tris.HCl buffer
row,Molecule,time to lose 10% potency
1,"Uroporphyrinogen decarboxylase (1URO): human protein (protein, UniProt P06132 1-367, looked up) Uroporphyrinogen decarboxylase: MEANGLGPQGFPELKNDTFLRAAWGEETDYTPVWCMRQAGRYLPEFRETRAAQDFFSTCRSPEACCELTLQPLRRFPLDAAIIFSDILVVPQALGMEVTMVPGKGPSFPEPLREEQDLERLRDPEVVASELGYVFQAITLTRQRLAGRVPLIGFAGAPWTLMTYMVEGGGSSTMAQAKRWLYQRPQASHQLLRILTDALVPYLVGQVVAGAQALQLFESHAGHLGPQLFNKFALPYIRDVAKQVKARLREAGLAPVPMIIFAKDGHFALEELAQAGYEVVGLDWTVAPKKARECVGKTVTLQGNLDPCALYASEEEIGQLVKQMLDDFGPHRYIANLGHGLYPDMDPEHVGAFVDAVHKHSRLLRQN",about 3.6 hours
